Results as given in PMC10908814.

Target: T1, NgAgo (engineered Natronobacterium gregoryi Argonaute) (Natronobacterium gregoryi) (UniProt L0AJX6)
T1 sequence: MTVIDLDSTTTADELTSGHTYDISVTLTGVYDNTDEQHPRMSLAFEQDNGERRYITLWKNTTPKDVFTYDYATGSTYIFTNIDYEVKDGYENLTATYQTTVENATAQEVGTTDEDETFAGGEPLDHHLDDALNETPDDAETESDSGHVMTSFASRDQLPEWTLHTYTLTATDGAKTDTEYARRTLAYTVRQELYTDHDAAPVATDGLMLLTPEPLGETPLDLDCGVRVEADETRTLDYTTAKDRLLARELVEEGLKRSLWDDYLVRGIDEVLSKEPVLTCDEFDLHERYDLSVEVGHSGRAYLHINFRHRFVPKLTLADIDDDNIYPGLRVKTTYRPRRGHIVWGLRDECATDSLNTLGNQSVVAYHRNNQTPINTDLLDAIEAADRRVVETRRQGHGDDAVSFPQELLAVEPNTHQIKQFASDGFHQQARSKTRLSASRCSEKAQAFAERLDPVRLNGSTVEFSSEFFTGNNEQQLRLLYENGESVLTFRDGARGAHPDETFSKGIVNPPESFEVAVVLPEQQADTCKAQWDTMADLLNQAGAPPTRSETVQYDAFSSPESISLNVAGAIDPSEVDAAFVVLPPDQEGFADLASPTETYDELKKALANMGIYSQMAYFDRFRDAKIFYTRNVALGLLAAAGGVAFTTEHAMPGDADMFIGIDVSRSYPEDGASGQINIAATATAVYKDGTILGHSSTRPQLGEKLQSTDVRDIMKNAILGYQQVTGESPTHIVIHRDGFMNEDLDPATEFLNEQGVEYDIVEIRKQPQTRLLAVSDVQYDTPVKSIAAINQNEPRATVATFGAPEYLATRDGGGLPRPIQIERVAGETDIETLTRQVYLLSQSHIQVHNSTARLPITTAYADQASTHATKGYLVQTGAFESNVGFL
Test: SPR
Conditions: 5'-phosphate on guide; SPR: 10 mM HEPES, 150 mM NaCl, 3 mM EDTA, pH 7.4, 0.005% Tween-20, temperature not stated; EMSA: 2% agarose, 1x TAE, 100 V

TAAACCCAAAGAATGTCTGAGGGG / CCCTCCTTTTGTAAACAATGCATTCATCGACCTTCCAGCCGGGGTTGGTTCTGCCCCTCTCTCTGTCCTTCAGAGGAACCAGGGACCTCGGGCACCCCAGAGCCCCTCGGGCCCGCCTCCAGGCGCCCTCCTGGTCTCCGCTCCCCTCTGAGCCCCGTTAAACCCAAAGAATGTCTGAGGGGAGCCACCCTCGGGGCCCAGGCCCCAGAGTCACAC / CCCCTCAGACATTCTTTGGGTTTA [g3 guide / EBV cfDNA SPR amplicon]
Kd: 5.49 nM
